Consider eight molecules from patent publication US10077433B2, “Permuted and nonpermuted luciferase biosensors” (PROMEGA CORPORATION, priority 2006, dated 2018).

The test system of experiment [1] is intracellular cAMP concentration, HEK 293 cells. As to the kind of experiment: Intracellular cAMP changes in HEK293 cells with CPM-hRL Luc/RIIβB biosensors (isopreterenol, propranolol, forskolin). It counts as cell-based. The procedure:
Cells were cultured in 2 mL DMEM/F12 with HEPES buffer (Invitrogen) and 10% FBS at 37° C. with 5% CO2 in a 6 well plate. Three of the constructs described in Example XVII were used to detect intracellular changes of cAMP concentrations. The constructs used were: pBFB277, pBFB279 and pBFB287. HEK293 cells stably expressing CPM91-hRL/RIIβB (ORF derived from 201325.44.H6 were also used in these experiments. HEK293 cells were transfected with TransIt®-LT1 Reagent (MIRUS) using 6 μL TransIt®-LT1 reagent and 2 μg DNA (pBFB277, pBFB279 and pBFB287) per well of a 6 well plate. Cells were allowed to grow overnight and were assayed the next day. Approximately 1 day after transfection, cells were trypsinized, resuspended in fresh DMEM/F12 with HEPES buffer (Invitrogen) with 1% FBS and plated in a 96 well plate at approximately 10,000 cells per well. Alternatively, a HEK293 cell line stably expressing CP91-hRL/RIIβB was plated in a 96 well plate at approximately 10,000 cells per well. A 10 μL aliquot of 600 μM EnduRen was added to a total of 100 μL of cell culture to give a final concentration of approximately […]. Cells were then incubated at 37° C. with 5% CO2. After 5 hours, the plate was removed from the incubator and allowed to cool to room temperature for at least 20 minutes. After 20 minutes, baseline measurements of luminescence were measured using a 96 well Veritas Luminometer (Turner Biosystems; integration time of 0.5 seconds per well). Cells were then induced with 10 μM isopreterenol (CalBiochem), 50 μM forskolin (Sigma) or not induced (0.1% DMSO, Sigma) and luminescence was measured continuously for about 30 minutes. After 30 minutes, 10 μM propranolol (Sigma) was added to cells already induced with isopreterenol and 0.1% DMSO was added to all other samples. Luminescence was then measured continuously for the next 30 minutes. A final addition of 50 μM forskolin was added to the isopreterenol/propranolol sample and 0.1% DMSO was added to all other samples. Luminescence was then measured continuously for the next half hour. Samples were measured in sets of 4-6 replicates. 10× stocks of isopreterenol, propranolol, forskolin and DMSO were made in DMEM/F12 with HEPES buffer (Invitrogen) and 1% FBS.

For experiment [2] the test system is unchanged. As to the kind of experiment: Intracellular cAMP changes in HEK 293 cells transiently transfected with CPM-FF Luc/RIIβB (pBFB141). It is filed as cell-based. The method, then: Cells were cultured in 60 ml in DMEM/F12 with HEPES buffer (Invitrogen) with 10% FBS at 37° C. with 5% CO2.
The ORF encoding the CPM-FF Luc/RIIβB based cAMP biosensor with X/Y linker lengths of (X=10, Y=0) was transferred to Flexi vector pF4K (Flexi vector system; Promega Corp.). The resultant plasmid construct (pBFB141) utilizes an upstream CMV promoter for expression of the associated cAMP biosensor in mammalian cells.
Cells were transfected with TransIt®-LT1 Reagent (MIRUS) using 0.3 μl TransIt®-LT1 reagent and 0.15 μg DNA per well of a 96 well plate. Cells were allowed to grow overnight and were assayed the next day.
Approximately 1 day after transfection, cells were removed from the incubator and equilibrated to room temperature. A 5 μl aliquot of 100 mM Luciferin EF was added to a total of 90 μl of cell culture plus transfection reagent to give a final concentration of approximately 5 mM luciferin. Cells were then incubated at room temperature for at least 90 minutes. After 90 minutes at room temperature, baseline measurements of luminescence were measured using a 96 well Veritas Luminometer (Turner Biosystems; integration time of 0.5 seconds per well). Cells were then induced with 10 μM isopreterenol (CalBiochem), 50 mM forskolin (Sigma) or not induced (0.1% DMSO, Sigma) and luminescence was measured continuously for about 30 minutes. After 30 minutes, […] (Sigma) was added to cells with isopreterenol and 0.1% DMSO was added to all other samples. Luminescence was then measured continuously for the next 30 minutes. A final addition of 50 μM forskolin was added to the isopreterenol/propranolol sample and 0.1% DMSO was added to all other samples. Luminescence was then measured continuously for the next half hour. Samples were measured in sets of 12 replicates. 10× stocks of isopreterenol, propranolol, forskolin and DMSO were made in 1×PBS (Invitrogen).

A short description of experiment [3]: Nonpermuted Oplophorus luciferase/RIIβB insertion constructs, luminescence with or without exogenous cAMP. The following applies: for luminescence, + exogenous cAMP: addition of exogenous cAMP to 50 μM final concentration; for luminescence, − no exogenous cAMP: no exogenous cAMP was added. It is filed as biochemical. The method, then: Protein was expressed from these constructs using the TnT T7 Coupled Reticulocyte Lysate System. Following expression, 9 μL of TNT reaction was mixed with 1 μL 1 mM cAMP stock or H2O, and the reactions were allowed to incubate at room temperature for approximately 15 minutes. Following incubation, 10 μL of 2× buffer (300 mM HEPES, pH=8.0, 200 mM thiourea) was added to each reaction, and luminescence was measured from the resulting 20 μL of solution following addition of 100 μL of Renilla Assay Reagent using a Turner 20/20N luminometer (1 second integration time).

Experiment [4] can be described thus: CPM hRL / GAF A domain biosensor, luminescence with or without exogenous cAMP (reticulocyte lysate). It counts as biochemical. The procedure:
An additional type of cAMP biosensor was constructed using a circularly permuted Renilla luciferase (hRL) and a GAF domain. The plasmid DNA construct encoding the following fusion protein: Met-(hRL 92-311)-[…]-(GAF A domain from Trypanosoma brucei PDE; Genbank AF192755 amino acids 241-375)-[…]-A-(hRL 3-91)-Val (SEQ ID NO:185) [clone pBFB232]. Following expression using the T7 Coupled Reticulocyte Lysate System, luminescence activity was measured in the presence or absence of exogenous cAMP. In the presence of cAMP, the measured activity was 7595 RLU; in the absence of cAMP, the measured activity was 298 RLU (about a 25 fold change). […] This type of reagent may allow the monitoring of changes in cAMP concentration in living cells, and it also may provide distinct advantages over existing FRET-based cAMP biosensors in that assay format. Moreover, since the GAF domain is a highly conserved fold in nature responsible for binding a wide range of molecules, it is likely that additional types of CPM hRL biosensors could be made using this fold.

On to `CC(C)NCC(O)c1ccc(O)c(O)c1` (centres unmarked) [isopreterenol], for which the “increase in light output” value in experiment [1] (HEK293 cells stably expressing CPM91-hRL/RIIβB, isopreterenol and forskolin treatment) was “about 5 fold”. In addition, the “increase in light output from transfected cells” value in experiment [1] (HEK 293 transiently transfected with CPM-hRL Luc/RIIβB (X=4, Y=20) constructs, 10 μM isopreterenol or 50 μM forskolin alone) is “approximately 2 fold”; in experiment [2] (HEK 293 cells, pBFB141, 10 μM isopreterenol or 50 mM forskolin (so in the source), treatment alone, room temperature) it was “approximately 2 fold”.
On to “Wild type luciferase: wild type (firefly) luciferase control”, for which the “response to known modulators of intracellular cAMP concentration” value in experiment [2] (control constructs in HEK 293 cells) is given as “no specific response”.

B1: pBFB400: Met-(OpLuc 1-84)-GSTG-R2betaB-GSSG-(OpLuc 85-169) (protein)
chain: MFTLADFVGDWQQTAGYNQDQVLEQGGLSSLFQALGVSVTPIQKVVLSGENGLKADIHVIIPYEGLSGFQMGLIEMIFKVVYPVDGSTGMYESFIESLPFLKSLEFSERLKVVDVIGTKVYNDGEQIIAQGDSADSFFIVESGEVKITMKRKGKSEVEENGAVEIARCSRGQYFGELALVTNKPRAASAHAIGTVKCLAMDVQAFERLLGPCMEIMKRNIATYEEQLVALFGTNMDIVGSSGDHHFKIILHYGTLVIDGVTPNMIDYFGRPYPGIAVFDGKQITVTGTLWNGNKIYDERLINPDGSLLFRVTINGVTGWRLCENILA
As for B1, in experiment [3], the “luminescence, + exogenous cAMP” value is 10,369 and the “luminescence, − no exogenous cAMP” value is 6,387.

B2: pBFB398: Met-(OpLuc 1-50)-GSSGGSGGSG-R2betaB-GSSGGSGGSG-(OpLuc 51-169) (protein)
chain: MFTLADFVGDWQQTAGYNQDQVLEQGGLSSLFQALGVSVTPIQKVVLSGENGSSGGSGGSGMYESFIESLPFLKSLEFSERLKVVDVIGTKVYNDGEQIIAQGDSADSFFIVESGEVKITMKRKGKSEVEENGAVEIARCSRGQYFGELALVTNKPRAASAHAIGTVKCLAMDVQAFERLLGPCMEIMKRNIATYEEQLVALFGTNMDIVGSSGGSGGSGGLKADIHVIIPYEGLSGFQMGLIEMIFKVVYPVDDHHFKIILHYGTLVIDGVTPNMIDYFGRPYPGIAVFDGKQITVTGTLWNGNKIYDERLINPDGSLLFRVTINGVTGWRLCENILA
For B2, in experiment [3], the “luminescence, + exogenous cAMP” value is 4,917 and the “luminescence, − no exogenous cAMP” value came out at 291.

B3: pBFB232: CPM hRL 92-311/3-91 with GAF A domain from Trypanosoma brucei PDE (SEQ ID NO:185) (protein)
chain: MYRLLDHYKYLTAWFELLNLPKKIIFVGHDWGACLAFHYSYEHQDKIKAIVHAESVVDVIESWDEWPDIEEDIALIKSEEGEKMVLENNFFVETMLPSKIMRKLEPEEFAAYLEPFKEKGEVRRPTLSWPREIPLVKGGKPDVVQIVRNYNAYLRASDDLPKMFIESDPGFFSNAIVEGAKKFPNTEFVKVKGLHFSQEDAPDEMGKYIKSFVERVLKNEQGSSGGSGGSGGGSGGSGGSGSIMNTVKSLTESARCSLFLVRGDVLEAHFEDGNVVTIPRGAGIAGYVAQTGETVNIVDAYADDRFNREVDKATGYRTKTILCMPVMYEGTIVAVAQLINKLDLTTESGLRLPRVFGKRDEELFQTFSMFAGASLRGSGGSGGSGGTSGGSGGSSGASKVYDPEQRKRMITGPQWWARCKQMNVLDSFINYYDSEKHAENAVIFLHGNAASSYLWRHVVPHIEPVARCIIPDLIGMGKSGKSGNGSV
In the case of B3, the “measured activity in the presence of cAMP” value in experiment [4] (exogenous cAMP) worked out at 7595 RLU. In addition, the “measured activity in the absence of cAMP” value in experiment [4] (no cAMP) was determined as 298 RLU. In addition, the “fold change with cAMP” value in experiment [4] (presence vs absence of cAMP) is given as about 25 fold.

B4: pBFB401: Met-(OpLuc 1-84)-GSSGGSGGSG-R2betaB-GSSGGSGGSG-(OpLuc 85-169) (protein)
chain: MFTLADFVGDWQQTAGYNQDQVLEQGGLSSLFQALGVSVTPIQKVVLSGENGLKADIHVIIPYEGLSGFQMGLIEMIFKVVYPVDGSSGGSGGSGMYESFIESLPFLKSLEFSERLKVVDVIGTKVYNDGEQIIAQGDSADSFFIVESGEVKITMKRKGKSEVEENGAVEIARCSRGQYFGELALVTNKPRAASAHAIGTVKCLAMDVQAFERLLGPCMEIMKRNIATYEEQLVALFGTNMDIVGSSGGSGGSGDHHFKIILHYGTLVIDGVTPNMIDYFGRPYPGIAVFDGKQITVTGTLWNGNKIYDERLINPDGSLLFRVTINGVTGWRLCENILA
For B4, in experiment [3], the “luminescence, + exogenous cAMP” value is on record as 6,124 and the “luminescence, − no exogenous cAMP” value is 2,304.

B5: pBFB402: OpLuc 1-84 / R2betaB / OpLuc 85-169, 20 aa linkers (SEQ ID NO: 195) (protein)
chain: MFTLADFVGDWQQTAGYNQDQVLEQGGLSSLFQALGVSVTPIQKVVLSGENGLKADIHVIIPYEGLSGFQMGLIEMIFKVVYPVDGSSGGSGGSGGGSGGSGGSGMYESFIESLPFLKSLEFSERLKVVDVIGTKVYNDGEQIIAQGDSADSFFIVESGEVKITMKRKGKSEVEENGAVEIARCSRGQYFGELALVTNKPRAASAHAIGTVKCLAMDVQAFERLLGPCMEIMKRNIATYEEQLVALFGTNMDIVGSGGSGGSGGTSGGSGGSSGDHHFKIILHYGTLVIDGVTPNMIDYFGRPYPGIAVFDGKQITVTGTLWNGNKIYDERLINPDGSLLFRVTINGVTGWRLCENILA
B5: in experiment [3], the “luminescence, + exogenous cAMP” value was 62,264 and the “luminescence, − no exogenous cAMP” value is 8,568.

B6: pBFB399: OpLuc 1-50 / R2betaB / OpLuc 51-169, 20 aa linkers (SEQ ID NO: 192) (protein)
chain: MFTLADFVGDWQQTAGYNQDQVLEQGGLSSLFQALGVSVTPIQKVVLSGENGSSGGSGGSGGGSGGSGGSGMYESFIESLPFLKSLEFSERLKVVDVIGTKVYNDGEQIIAQGDSADSFFIVESGEVKITMKRKGKSEVEENGAVEIARCSRGQYFGELALVTNKPRAASAHAIGTVKCLAMDVQAFERLLGPCMEIMKRNIATYEEQLVALFGTNMDIVGSGGSGGSGGTSGGSGGSSGGLKADIHVIIPYEGLSGFQMGLIEMIFKVVYPVDDHHFKIILHYGTLVIDGVTPNMIDYFGRPYPGIAVFDGKQITVTGTLWNGNKIYDERLINPDGSLLFRVTINGVTGWRLCENILA
Regarding B6, in experiment [3], the “luminescence, + exogenous cAMP” value is given as 38,051 and the “luminescence, − no exogenous cAMP” value is reported as 356.
